Experimental data reported in patent US20150166611A1.

Tests used:
[1] = biological target: wild-type HIV-1NL4-3 Env (unlabeled gp120 protomers of the trimer on virions) (HIV-1 NL4-3); test: intermolecular smFRET; CD4 bound to an unlabeled gp120 of the trimer, donor Cy3 on the neighbouring labelled gp120
[2] = biological target: HIV-1 Env (NL4-3) labeled with Cy3 at the LV4-2-A1 loop insertion, on virions (HIV-1 NL4-3); test: intermolecular smFRET; high-FRET state assigned to CD4 bound to the Cy3-labelled gp120

**Q.** Which FRET state (intermediate) (FRET efficiency) [1] does the source give for “Cy5-labeled soluble CD4(C92) (D1-D2) (from UniProt P01730 26-208) (receptor)” here?
**A.** Its FRET state (intermediate) (FRET efficiency) is 0.3.

**Q.** And the FRET state (low) (FRET efficiency) [1]?
**A.** The FRET state (low) (FRET efficiency) was 0.2.

**Q.** And the FRET state (high) (FRET efficiency) [2]?
**A.** Its FRET state (high) (FRET efficiency) is 0.85.
